The term stoichiometry N denotes the number of molecules, sites or subunits per partner or assembly.

These results are taken from article PMC10348674 (Science Advances, 2023).

First the molecules themselves.
B1: FLAG-tagged KCTD7 WT (E. coli, for pull-down) (natural protein)
chain: MVVVTGREPDSRHSDGAMSSSEAEDDFLEPATPTATQAGHGLPLLPQEFPEVVPLNIGGAHFTTRLSTLRRYEDTMLAAMFSGRHYIPTDSEGRYFIDRDGTHFGDVLNFLRSGDLPPREHVRAVHKEAQYYAIGPLLEQLENMQPLKGEKVRQAFLGLMPYYKDHLERIVEIARLRAVQRKARFAKLKVCVFKEEMPITPYECPLLNSLRFERSESDGQLFEHHCEVDVSFGPWEAVADVYDLLHCLVTDLSAQGLTVDHQCIGVCDKHLVNHYYCKRPIYEFKITWW
B2: FLAG-tagged KCTD7 R65A (natural protein)
chain: B1 chain with R65A
B3: FLAG-tagged KCTD7 S67A (natural protein)
chain: B1 chain with S67A
B4: FLAG-tagged KCTD5 full-length (FL) (natural protein)
chain: MAENHCELLPPAPSGLGAGLGGGLCRRCSAGMGALAQRPGGVSKWVRLNVGGTYFLTTRQTLCRDPKSFLYRLCQADPDLDSDKDETGAYLIDRDPTYFGPVLNYLRHGKLVINKDLAEEGVLEEAEFYNITSLIKLVKDKIRERDSRISQMPVKHVYRVLQCQEEELTQMVSTMSDGWKFEQLVSIGSSYNYGNEDQAEFLCVVSKELHNTPYGTTSEPSEKAKILQERGSRM
B5: FLAG-tagged KCTD5 W179A (natural protein)
chain: B4 chain with W179A
B6: FLAG-tagged KCTD5 E167A (natural protein)
chain: B4 chain with E167A
B7: FLAG-tagged KCTD5 D93A (natural protein)
chain: B4 chain with D93A
B8: FLAG-tagged KCTD5 R159A (natural protein)
chain: B4 chain with R159A
B9: FLAG-tagged KCTD5 R72A (natural protein)
chain: B4 chain with R72A
B10: KCTD7 (Sf9, for the cryo-EM complex) (natural protein)
chain: B1 chain

Where a chain is given by its changes, count along the chain named. Names and notes keep the numbering of the source.

T1 sequence (Q13618 23-388 I342R/L346D): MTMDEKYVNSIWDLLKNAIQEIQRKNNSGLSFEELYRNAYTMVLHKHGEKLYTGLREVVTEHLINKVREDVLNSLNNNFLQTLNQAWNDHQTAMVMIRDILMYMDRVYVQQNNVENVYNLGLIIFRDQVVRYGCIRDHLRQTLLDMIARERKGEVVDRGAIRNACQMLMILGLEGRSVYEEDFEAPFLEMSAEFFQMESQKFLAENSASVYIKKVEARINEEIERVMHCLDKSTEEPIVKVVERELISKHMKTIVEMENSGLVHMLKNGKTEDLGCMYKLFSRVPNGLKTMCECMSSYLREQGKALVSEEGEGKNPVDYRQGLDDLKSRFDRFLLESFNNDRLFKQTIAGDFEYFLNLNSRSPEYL

The first data set addresses T1, Cul3NΔ22 (23-388, I342R, and L346D) (UniProt Q13618 23-388, I342R | L346D). The data set is described as follows: pull-down.
As to B1, the binding result was “binds”.

Take B2: the binding result is on record as “binds”.

With B3, the binding result is given as “binds”.

Consider B4, for which the binding result is given as “binds”.

Take B5: the binding result was “binds”.

Consider B6, for which the binding result is reported as “binds”.

Take B7: the binding result is listed as “binds”.

As to B8, the binding result is “binds”.

As for B9, the binding result is reported as “binds”.

A further data set has as its target T1, Cul3NΔ22 (23-388, I342R, and L346D). Nature of the data set: cryo-EM structure.
For the molecule B10, the binding result is reported as “binds”.

Another data set deals with the molecule itself. The data set is described as follows: cryo-EM structure.
Turning to B10, the “stoichiometry N” value was 5.
